Results on one substance are retold here after patent publication US20250325664A1, “COMBINATION THERAPY WITH AN ANTI-COLONY STIMULATING FACTOR 1 RECEPTOR ANTIBODY AND A JAK INHIBITOR” (Incyte Corporation, priority 2024, published 2025).

For data set [1], the system named is subjects with cGVHD. Nature of the data set: Clinical study of axatilimab given as a single agent to subjects with cGVHD after at least two prior lines of systemic therapy.
The nature of data set [2]: Population PK/PD model of axatilimab: post-hoc exposures and pediatric simulation. Also on record: species or system human. The note with it: five participants aged 12 to 17 years in cGVHD studies vs adults of same dose groups. The source says:
In addition, the developed population PK/PD model for axatilimab was extrapolated to simulate PK in pediatric patients aged 12 to 17 years, using standard allometric exponents of 0.75 for clearance-related parameters and 1.0 for volume of distribution-related parameters.

Data set [3] has as its system subjects with cGVHD. The note with it: human, in vivo.

Take “axatilimab: humanized IgG4 monoclonal antibody that binds CSF-1R; heavy chain SEQ ID NO:2, light chain SEQ ID NO:3”: the “participants with treatment-emergent adverse events (TEAEs)” value with subjects with cGVHD [1] (0.3 mg/kg Q2W) is 6%; in the data set on subjects with cGVHD [1] (1 mg/kg Q2W), 22%; with subjects with cGVHD [1] (3 mg/kg Q4W), 18%. Further, in the data set with subjects with cGVHD [1] (0.3 mg/kg Q2W), the “reported CMV infections” value is “no CMV infections were reported”. The “participants with reduction in modified Lee Symptom Scale (mLSS) score ≤7 points” value with subjects with cGVHD [1] (0.3 mg/kg Q2W cohort, first 6 cycles) is recorded as 55%. In addition, the “frequency of treatment-related AEs, any grade and ≥Grade 3” value in the data set with subjects with cGVHD [1] (0.3 mg/kg Q2W vs 1 mg/kg Q2W vs 3 mg/kg Q4W) is on record as “showed dose dependency, with lowest incidence at 0.3 mg/kg Q2W”. Moreover, the “objective response rate (ORR), primary endpoint” value is on record as 73.8% in the data set on subjects with cGVHD [1] (0.3 mg/kg Q2W, first 6 cycles); 66.7% in the data set on subjects with cGVHD [1] (1 mg/kg Q2W, first 6 cycles); 50% in the data set with subjects with cGVHD [1] (3 mg/kg Q4W, first 6 cycles). Moreover, the “most common TEAEs” value in the data set with subjects with cGVHD [1] (all dose cohorts) was “elevated aspartate aminotransferase/alanine aminotransferase (AST/ALT), creatine phosphokinase (CPK), lipase, amylase, and lactate dehydrogenase levels as well as periorbital edema”. Also, the “reported CMV infections (number)” value with subjects with cGVHD [1] (higher dose cohorts) stood at 2. In addition, the “post-hoc PK exposures in participants aged 12 to 17 years” value in data set [2] is “comparable to those observed in adult participants from the same dose groups”. Also, in the data set with subjects with cGVHD [3], the severity of infections entry is given as “Most infections were mild”.
